Test results taken from the Immune Epitope Database (IEDB).

Legend:
Assay in all cases: IEDB peptide-MHC binding, purified MHC/competitive/radioactivity; filed as Kd, often an IC50 or EC50 that approximates it; ≥ and ≤ were set here for values at or beyond the usual limits of such assays
HLA-A*02:03 = target: HLA-A*02:03
HLA-A*02:06 = target: HLA-A*02:06
HLA-A*02:02 = target: HLA-A*02:02
HLA-A*68:01 = target: HLA-A*68:01
HLA-A*03:01 = target: HLA-A*03:01
HLA-A*31:01 = target: HLA-A*31:01
HLA-A*11:01 = target: HLA-A*11:01
HLA-A*33:01 = target: HLA-A*33:01
[1] = source organism: Vaccinia virus WR
[2] = source organism: SARS coronavirus Tor2
[3] = source organism: Mammarenavirus juninense

MAFILGIII
Kd (HLA-A*02:03; [1]): 9760 nM | Kd (HLA-A*02:06; [1]): ≥ 32500 nM | Kd (HLA-A*02:02; [1]): 9530 nM

KSLLLLNTR
Kd (HLA-A*68:01; [1]): 16900 nM | Kd (HLA-A*03:01; [1]): 689 nM | Kd (HLA-A*31:01; [1]): 0.627 nM | Kd (HLA-A*11:01; [1]): 114 nM | Kd (HLA-A*33:01; [1]): 1160 nM

VLMHPDFCK
Kd (HLA-A*68:01; [1]): 259 nM | Kd (HLA-A*03:01; [1]): 8.68 nM | Kd (HLA-A*31:01; [1]): 227 nM | Kd (HLA-A*11:01; [1]): 4.33 nM | Kd (HLA-A*33:01; [1]): 1380 nM

STVKTNLYMK
Kd (HLA-A*68:01; [1]): 2.27 nM | Kd (HLA-A*03:01; [1]): 212 nM | Kd (HLA-A*31:01; [1]): 640 nM | Kd (HLA-A*11:01; [1]): 3.96 nM | Kd (HLA-A*33:01; [1]): ≥ 70000 nM

PVDTEFINK
Kd (HLA-A*68:01; [1]): 3570 nM | Kd (HLA-A*03:01; [1]): 19900 nM | Kd (HLA-A*31:01; [1]): 12700 nM | Kd (HLA-A*11:01; [1]): 89.5 nM | Kd (HLA-A*33:01; [1]): ≥ 41800 nM

HAKYMVTDKT
Kd (HLA-A*02:03; [1]): ≥ 35000 nM | Kd (HLA-A*02:06; [1]): ≥ 65100 nM | Kd (HLA-A*02:02; [1]): 9030 nM

YISRDELWA
Kd (HLA-A*02:03; [1]): 242 nM | Kd (HLA-A*02:06; [1]): 1200 nM | Kd (HLA-A*02:02; [1]): 333 nM

TQYNRYLALY
Kd (HLA-A*68:01; [2]): 99.3 nM | Kd (HLA-A*03:01; [2]): 266 nM | Kd (HLA-A*31:01; [2]): 283 nM | Kd (HLA-A*11:01; [2]): 1570 nM | Kd (HLA-A*33:01; [2]): 1610 nM

GLCNYGGIL
Kd (HLA-A*02:03; [1]): 125 nM | Kd (HLA-A*02:06; [1]): 1360 nM | Kd (HLA-A*02:02; [1]): 97.7 nM

FTNSQIFNI
Kd (HLA-A*02:03; [1]): 7.11 nM | Kd (HLA-A*02:06; [1]): 4.79 nM | Kd (HLA-A*02:02; [1]): 6.89 nM

IIVAGFSGK
Kd (HLA-A*68:01; [1]): 1440 nM | Kd (HLA-A*03:01; [1]): 9.1 nM | Kd (HLA-A*31:01; [1]): 689 nM | Kd (HLA-A*11:01; [1]): 25.4 nM | Kd (HLA-A*33:01; [1]): 805 nM

NTILLSDKGK
Kd (HLA-A*68:01; [1]): 1.45 nM | Kd (HLA-A*03:01; [1]): 96.6 nM | Kd (HLA-A*31:01; [1]): ≥ 20300 nM | Kd (HLA-A*11:01; [1]): 190 nM | Kd (HLA-A*33:01; [1]): 12400 nM

KMSTDNAVY
Kd (HLA-A*68:01; [1]): 11600 nM | Kd (HLA-A*03:01; [1]): 43.4 nM | Kd (HLA-A*31:01; [1]): 9730 nM | Kd (HLA-A*11:01; [1]): 182 nM | Kd (HLA-A*33:01; [1]): ≥ 77700 nM

NIRLTDTEYR
Kd (HLA-A*68:01; [1]): 1.39 nM | Kd (HLA-A*03:01; [1]): ≥ 70100 nM | Kd (HLA-A*31:01; [1]): 59 nM | Kd (HLA-A*11:01; [1]): 17500 nM | Kd (HLA-A*33:01; [1]): 157 nM

FMRDWNSKY
Kd (HLA-A*68:01; [1]): ≥ 77700 nM | Kd (HLA-A*03:01; [1]): 8370 nM | Kd (HLA-A*31:01; [1]): ≥ 77900 nM | Kd (HLA-A*11:01; [1]): ≥ 77900 nM | Kd (HLA-A*33:01; [1]): ≥ 66300 nM

SVFKGFSDK
Kd (HLA-A*68:01; [1]): 5.49 nM | Kd (HLA-A*03:01; [1]): 4.28 nM | Kd (HLA-A*31:01; [1]): 764 nM | Kd (HLA-A*11:01; [1]): 0.852 nM | Kd (HLA-A*33:01; [1]): 13500 nM

YMVTDKTAY
Kd (HLA-A*68:01; [1]): ≥ 40900 nM | Kd (HLA-A*03:01; [1]): ≥ 33700 nM | Kd (HLA-A*31:01; [1]): ≥ 47800 nM | Kd (HLA-A*11:01; [1]): ≥ 26200 nM | Kd (HLA-A*33:01; [1]): ≥ 44300 nM

FFVFIHMVR
Kd (HLA-A*68:01; [1]): 0.0241 nM | Kd (HLA-A*03:01; [1]): 0.874 nM | Kd (HLA-A*31:01; [1]): 1.08 nM | Kd (HLA-A*11:01; [1]): 3780 nM | Kd (HLA-A*33:01; [1]): 0.46 nM

TAVAKCNLNH
Kd (HLA-A*68:01; [3]): ≥ 70100 nM | Kd (HLA-A*03:01; [3]): ≥ 70000 nM | Kd (HLA-A*31:01; [3]): ≥ 70000 nM | Kd (HLA-A*11:01; [3]): ≥ 69700 nM | Kd (HLA-A*33:01; [3]): 9990 nM

FTILEYLYI
Kd (HLA-A*02:03; [1]): 169 nM | Kd (HLA-A*02:06; [1]): 267 nM | Kd (HLA-A*02:02; [1]): 1560 nM

FVTDYVHEGV
Kd (HLA-A*02:03; [1]): 1.68 nM | Kd (HLA-A*02:06; [1]): 10.6 nM | Kd (HLA-A*02:02; [1]): 23.8 nM

LMTLDDLAIK
Kd (HLA-A*68:01; [1]): 2490 nM | Kd (HLA-A*03:01; [1]): 1670 nM | Kd (HLA-A*31:01; [1]): ≥ 40700 nM | Kd (HLA-A*11:01; [1]): 478 nM | Kd (HLA-A*33:01; [1]): ≥ 20900 nM

AAYFVGYLK
Kd (HLA-A*68:01; [2]): 3.19 nM | Kd (HLA-A*03:01; [2]): 3.9 nM | Kd (HLA-A*31:01; [2]): 178 nM | Kd (HLA-A*11:01; [2]): 3.19 nM | Kd (HLA-A*33:01; [2]): 5550 nM

ALIARCWYL
Kd (HLA-A*02:03; [2]): 17.1 nM | Kd (HLA-A*02:06; [2]): 0.982 nM | Kd (HLA-A*02:02; [2]): 0.196 nM

QALNSVANR
Kd (HLA-A*68:01; [1]): 55.7 nM | Kd (HLA-A*03:01; [1]): ≥ 20200 nM | Kd (HLA-A*31:01; [1]): 12 nM | Kd (HLA-A*11:01; [1]): 845 nM | Kd (HLA-A*33:01; [1]): 104 nM

IMLPESDLDK
Kd (HLA-A*68:01; [1]): 1670 nM | Kd (HLA-A*03:01; [1]): 609 nM | Kd (HLA-A*31:01; [1]): 489 nM | Kd (HLA-A*11:01; [1]): 393 nM | Kd (HLA-A*33:01; [1]): ≥ 70000 nM

KLFKKTDFK
Kd (HLA-A*68:01; [1]): 6280 nM | Kd (HLA-A*03:01; [1]): 8.46 nM | Kd (HLA-A*31:01; [1]): 8.08 nM | Kd (HLA-A*11:01; [1]): 8.86 nM | Kd (HLA-A*33:01; [1]): 13900 nM

YIEDELRRAA
Kd (HLA-A*02:03; [1]): 166 nM | Kd (HLA-A*02:06; [1]): 204 nM | Kd (HLA-A*02:02; [1]): 628 nM

GLRQQLEDI
Kd (HLA-A*02:03; [1]): 4.72 nM | Kd (HLA-A*02:06; [1]): 4310 nM | Kd (HLA-A*02:02; [1]): 43 nM

ISIYSRPKIK
Kd (HLA-A*68:01; [1]): 1730 nM | Kd (HLA-A*03:01; [1]): 143 nM | Kd (HLA-A*31:01; [1]): 5070 nM | Kd (HLA-A*11:01; [1]): 1670 nM | Kd (HLA-A*33:01; [1]): 8830 nM

GMQFDKVYL
Kd (HLA-A*02:03; [1]): 277 nM | Kd (HLA-A*02:06; [1]): 1910 nM | Kd (HLA-A*02:02; [1]): 13.4 nM

ASLKNTISK
Kd (HLA-A*68:01; [1]): 3750 nM | Kd (HLA-A*03:01; [1]): 6.45 nM | Kd (HLA-A*31:01; [1]): 1800 nM | Kd (HLA-A*11:01; [1]): 5.21 nM | Kd (HLA-A*33:01; [1]): ≥ 77700 nM

AVITETIPI
Kd (HLA-A*02:03; [1]): 43.1 nM | Kd (HLA-A*02:06; [1]): 6.46 nM | Kd (HLA-A*02:02; [1]): 324 nM

ASTTENAAY
Kd (HLA-A*68:01; [1]): 2420 nM | Kd (HLA-A*03:01; [1]): 2170 nM | Kd (HLA-A*31:01; [1]): ≥ 71400 nM | Kd (HLA-A*11:01; [1]): 307 nM | Kd (HLA-A*33:01; [1]): 3880 nM
